The record followed here is patent US20190338048A1.

Assay [1] addresses CAT-2200 heavy chain Fab construct (H1) L143E_K145T_Q179E. As to the kind of experiment: LCCA, SPR tag read-out.
The target in assay [2] is CAT-2200 heavy chain Fab construct (H1) L143E_K145T. Put plainly: LCCA, SPR tag read-out.
The target in assay [3] is CAT-2200 heavy chain Fab construct (H1) S186R. Put plainly: LCCA, SPR tag read-out.
Assay [4] has the same target. Put plainly: LCCA, SPR tag read-out. The source holds these as a separate data set.
Assay [5] addresses CAT-2200 heavy chain Fab construct (H1) Q179K. As to the kind of experiment: LCCA, SPR tag read-out.
The target in assay [6] is CAT-2200 heavy chain Fab construct (H1) D146G_Q179K. Put plainly: LCCA, SPR tag read-out.
Assay [7] concerns the target CAT-2200 heavy chain Fab construct (H1) Q179K. Put plainly: LCCA, SPR tag read-out. The source holds these as a separate data set.
The target of assay [8] is CAT-2200 heavy chain Fab construct (H1) L124E. As to the kind of experiment: LCCA, SPR tag read-out.
In assay [9] the target is Pertuzumab kappa light chain S121K_S131K. Put plainly: LCCA.
Assay [10] has as its target Pertuzumab kappa light chain S121K_T129K_S131K. As to the kind of experiment: LCCA.
The target in assay [11] is Pertuzumab kappa light chain S131K_L135A. Put plainly: LCCA.
In assay [12] the target is Pertuzumab kappa light chain S176K_T178R (L2), HA-tagged. As to the kind of experiment: LCCA, SPR of light-chain tags.
Assay [13] addresses Pertuzumab kappa light chain S176K_T178K (L2), HA-tagged. Put plainly: LCCA, SPR of light-chain tags.
Assay [14] concerns the target Pertuzumab kappa light chain S176K_T178L (L2), HA-tagged. Put plainly: LCCA, SPR of light-chain tags.
The target of assay [15] is Pertuzumab kappa light chain S176K_T178R (L2), HA-tagged. As to the kind of experiment: LCCA, SPR of light-chain tags. The source holds these as a separate data set.
Assay [16] concerns the target Pertuzumab kappa light chain S176K_T178K (L2), HA-tagged. Put plainly: LCCA, SPR of light-chain tags. The source holds these as a separate data set.
Assay [17] has as its target Pertuzumab kappa light chain S176K_T178L (L2), HA-tagged. As to the kind of experiment: LCCA, SPR of light-chain tags. This is another data set of the same source.
Assay [18] deals with Pertuzumab kappa light chain S176K_T178R (L2), HA-tagged. As to the kind of experiment: LCCA, SPR of light-chain tags. This is another data set of the same source.
Assay [19] deals with Pertuzumab kappa light chain S176K_T178K (L2), HA-tagged. Put plainly: LCCA, SPR of light-chain tags. The source holds these as a separate data set.
Assay [20] has as its target Pertuzumab kappa light chain S176K_T178L (L2), HA-tagged. As to the kind of experiment: LCCA, SPR of light-chain tags. The source holds these as a separate data set.
The target of assay [21] is Pertuzumab kappa light chain S176K_T178R (L2), HA-tagged. Put plainly: LCCA, SPR of light-chain tags. This is another data set of the same source.
For assay [22], the target named is Pertuzumab kappa light chain S176K_T178K (L2), HA-tagged. As to the kind of experiment: LCCA, SPR of light-chain tags. The source holds these as a separate data set.
Assay [23] has as its target Pertuzumab kappa light chain S176K_T178L (L2), HA-tagged. As to the kind of experiment: LCCA, SPR of light-chain tags. The source holds these as a separate data set.
In assay [24] the target is Pertuzumab kappa light chain S176K_T178R (L2), HA-tagged. Put plainly: LCCA, SPR of light-chain tags. This is another data set of the same source.
Assay [25] addresses Pertuzumab kappa light chain S176K_T178K (L2), HA-tagged. As to the kind of experiment: LCCA, SPR of light-chain tags. This is another data set of the same source.
Assay [26] deals with Pertuzumab kappa light chain V133G_S176R (L2), HA-tagged. Put plainly: LCCA, SPR of light-chain tags.
For assay [27], the target named is Pertuzumab kappa light chain V133A_S176K (L2), HA-tagged. As to the kind of experiment: LCCA, SPR of light-chain tags.
The target of assay [28] is Pertuzumab kappa light chain V133G_S176R (L2), HA-tagged. Put plainly: LCCA, SPR of light-chain tags. The source holds these as a separate data set.
The target in assay [29] is Pertuzumab kappa light chain V133A_S176K (L2), HA-tagged. As to the kind of experiment: LCCA, SPR of light-chain tags. The source holds these as a separate data set.
The target of assay [30] is Pertuzumab kappa light chain S131K_V133G_S176R (L2), HA-tagged. As to the kind of experiment: LCCA, SPR of light-chain tags.
Assay [31] addresses Pertuzumab kappa light chain S131R_V133G_S176R (L2), HA-tagged. Put plainly: LCCA, SPR of light-chain tags.
Assay [32] concerns the target Pertuzumab kappa light chain S131K_V133G_S176R (L2), HA-tagged. Put plainly: LCCA, SPR of light-chain tags. The source holds these as a separate data set.
The target in assay [33] is Pertuzumab kappa light chain S131R_V133G_S176R (L2), HA-tagged. Put plainly: LCCA, SPR of light-chain tags. The source holds these as a separate data set.
In assay [34] the target is Pertuzumab kappa light chain S131K_V133G_S176R (L2), HA-tagged. As to the kind of experiment: LCCA, SPR of light-chain tags. This is another data set of the same source.
Assay [35] deals with Pertuzumab kappa light chain S131R_V133G_S176R (L2), HA-tagged. As to the kind of experiment: LCCA, SPR of light-chain tags. The source holds these as a separate data set.
Assay [36] concerns the target Pertuzumab kappa light chain S131K_V133G_S176R_T178A (L2), HA-tagged. As to the kind of experiment: LCCA, SPR of light-chain tags.
Assay [37] has as its target Pertuzumab kappa light chain S131R_V133G_S176R_T178A (L2), HA-tagged. Put plainly: LCCA, SPR of light-chain tags.
The target in assay [38] is CAT-2200 lambda light chain V133L_S176D_Y178E (L1), FLAG-tagged. Put plainly: LCCA, SPR of light-chain tags.
The target of assay [39] is CAT-2200 lambda light chain S176E_Y178E (L1), FLAG-tagged. Put plainly: LCCA, SPR of light-chain tags.
The target in assay [40] is CAT-2200 lambda light chain V133L_S176D_Y178E (L1), FLAG-tagged. Put plainly: LCCA, SPR of light-chain tags. The source holds these as a separate data set.
The target in assay [41] is CAT-2200 lambda light chain S176E_Y178E (L1), FLAG-tagged. As to the kind of experiment: LCCA, SPR of light-chain tags. The source holds these as a separate data set.
Assay [42] has as its target Pertuzumab kappa light chain S131K_V133G_S176R_T178A (L2), HA-tagged. Put plainly: LCCA, SPR of light-chain tags. The source holds these as a separate data set.
The target in assay [43] is Pertuzumab kappa light chain S131R_V133G_S176R_T178A (L2), HA-tagged. As to the kind of experiment: LCCA, SPR of light-chain tags. The source holds these as a separate data set.
Assay [44] concerns the target Pertuzumab kappa light chain V133A_S176K_T178A (L2), HA-tagged. Put plainly: LCCA, SPR of light-chain tags.
For assay [45], the target named is Pertuzumab kappa light chain V133G_S176R_T178A (L2), HA-tagged. Put plainly: LCCA, SPR of light-chain tags.
Assay [46] concerns the target Pertuzumab kappa light chain V133A_S176K_T178A (L2), HA-tagged. Put plainly: LCCA, SPR of light-chain tags. This is another data set of the same source.
The target in assay [47] is Pertuzumab kappa light chain V133G_S176R_T178A (L2), HA-tagged. Put plainly: LCCA, SPR of light-chain tags. This is another data set of the same source.
Assay [48] addresses CAT-2200 lambda light chain V133L_S176D_Y178E (L1), FLAG-tagged. As to the kind of experiment: LCCA, SPR of light-chain tags. The source holds these as a separate data set.
The target of assay [49] is CAT-2200 lambda light chain S176E_Y178E (L1), FLAG-tagged. Put plainly: LCCA, SPR of light-chain tags. The source holds these as a separate data set.
Assay [50] addresses Pertuzumab kappa light chain Q124K_V133A_T178R. Put plainly: LCCA.
Assay [51] concerns the target CAT-2200 lambda light chain K129T_V133W_S180E. As to the kind of experiment: LCCA.
In assay [52] the target is Pertuzumab kappa light chain V133D (L2), N-terminal HA tag. Put plainly: LCCA, SPR of light chain tags.
Assay [53] shares this target. As to the kind of experiment: LCCA, SPR of light chain tags. The source holds these as a separate data set.
Assay [54] addresses CAT-2200 lambda light chain S176K_Y178K (L1), N-terminal FLAG tag. As to the kind of experiment: LCCA, SPR of light chain tags.
The target in assay [55] is Pertuzumab kappa light chain Q124E_Q160E_S176A_T178A_T180E (L2), N-terminal HA tag. As to the kind of experiment: LCCA, SPR of light chain tags.

Where two headings read alike, the source gives them in different places.

Consider “CAT-2200 lambda light chain construct (L1) E124K_Y178R, FLAG-tagged”, for which the H1L1:H1L2 normalized median scalar value ln(r1/f1) in assay [1] was -0.13.

For the substance “CAT-2200 lambda light chain construct (L1) E124R, FLAG-tagged”, in assay [2], the H1L1:H1L2 normalized median scalar value ln(r1/f1) is -0.11.

For “CAT-2200 lambda light chain construct (L1) S180E, FLAG-tagged”, the H1L1:H1L2 normalized median scalar value ln(r1/f1) in assay [3] was 2.07; in [4], 2.24; in assay [5] it was 2.32; in [6] it was 2.16; in assay [7] it was 0.94.

With “CAT-2200 lambda light chain construct (L1) V133G_S176R, FLAG-tagged”, the H1L1:H1L2 normalized median scalar value ln(r1/f1) in assay [8] came out at 0.08.

With “Pertuzumab Fab heavy chain K145T_Q179E_K228D”, the H2L2:H2L1 median scalar value in assay [9] is -0.1 ln. Moreover, in [10], the H2L2:H2L1 median scalar value was determined as 0.07 ln and the H2L2:H2L1 normalized median ratio came to 51%.

On to “Pertuzumab Fab heavy chain K145T_Q179E_S188F_V190F”, for which, in assay [11], the H2L2:H2L1 median scalar value is -0.45 ln.

As to “Pertuzumab Fab heavy chain K145T_V177D_S188D (H2)”, the H2L2:H2L1 normalized median scalar value ln(r1/f1) in assay [12] worked out at 1.75; in [13], 1.09; in assay [14], 2.11; in [15] it was 2.3; in assay [16], 2.4; in assay [17] it was 2.29. For the same substance, the H2L2:H2L1 normalized median scalar value ln(r1/f1) in assay [18] turned out to be 1.64; in assay [19] it was 1.83; in [20], 1.59; in [21], 1.59; in [22], 1.93; in assay [23], 1.52. For the same substance, the H2L2:H2L1 normalized median scalar value ln(r1/f1) worked out at 1.9 in assay [24] and 1.95 in assay [25].

In the case of Pertuzumab Fab heavy chain L124E (H2), the H2L2:H2L1 normalized median scalar value ln(r1/f1) is 2.32 in assay [26], 1.69 in [27], 0.25 in [28] and -0.15 in [29].

Take “Pertuzumab Fab heavy chain L124E_K145T_Q179E (H2)”: the H2L2:H2L1 normalized median scalar value ln(r1/f1) in [30] is 2.41; in assay [31], 2.42; in [32], 2.94; in assay [33], 2.85; in assay [34] it was 2.21; in assay [35], 2.51.

Take “Pertuzumab Fab heavy chain L124E_K145T_Q179E_S188W (H2)”: the H2L2:H2L1 normalized median ratio, H2L2 share turned out to be 88% in assay [36], 92% in [37], 85% in assay [42] and 89% in [43]. For the same substance, the H2L2:H2L1 normalized median scalar value ln(r1/f1) in assay [36] came out at 1.98; in [37], 2.4; in assay [42], 1.77; in [43], 2.13. Further, the H2L2:H2L1 normalized median ratio (H2L1 share) in [38] is 12%; in [39], 15%; in assay [40] it was 8%; in assay [41] it was 11%.

For “Pertuzumab Fab heavy chain L124E_S188W (H2)”, the H2L2:H2L1 normalized median ratio, H2L2 share in assay [44] worked out at 85%; in [45], 86%; in assay [46], 54%; in assay [47] it was 54%. The H2L2:H2L1 normalized median scalar value ln(r1/f1) in assay [44] turned out to be 1.71; in [45], 1.84; in assay [46], 0.18; in assay [47], 0.15. Besides, the H2L2:H2L1 normalized median ratio (H2L1 share) in [38] stood at 15%; in [39], 46%; in [48], 14%; in assay [49] it was 46%.

As for “Pertuzumab Fab heavy chain L124W_L143E_K145T”, in assay [50], the H2L2:H2L1 median scalar value turned out to be 0.73 ln and the H2L2:H2L1 normalized median ratio came out at 67%. Also, the H2L2:H2L1 normalized median ratio in assay [51] was determined as 33%.

Take “Pertuzumab Fab heavy chain S186K_S188T (H2), ABD2-His6 tagged”: the H2L2:H2L1 normalized median ratio in assay [52] was 62%; in [53], 70%; in assay [54] it was 38%. Also, the H2L2:H2L1 normalized median scalar value ln(r1/f1) came to 0.49 in [52] and 0.85 in assay [53].

Substance “Pertuzumab Fab heavy chain S186R_S188W (H2), ABD2-His6 tagged” gave an H2L2:H2L1 normalized median scalar value ln(r1/f1) in assay [55] of 2.64.
